Results as given in article PMC3670613 (Structure (London, England : 1993), 2013).
Positions count from the first letter of the chain named. Where two headings read alike, the source gives them in different places. Blank lines part the entries; values can stand above or below the binder they belong to.

What was measured:
[1] = target: T1, S. cerevisiae Rpn14 (recombinant) (S. cerevisiae, UniProt P53196 1-417); experiment: NMR titration
[2] = target: T1, S. cerevisiae Rpn14 (recombinant); experiment: AUC
[3] = target: T1, S. cerevisiae Rpn14 (recombinant); experiment: AUC; remark: listed apart in the source

T1 sequence (P53196 whole entry): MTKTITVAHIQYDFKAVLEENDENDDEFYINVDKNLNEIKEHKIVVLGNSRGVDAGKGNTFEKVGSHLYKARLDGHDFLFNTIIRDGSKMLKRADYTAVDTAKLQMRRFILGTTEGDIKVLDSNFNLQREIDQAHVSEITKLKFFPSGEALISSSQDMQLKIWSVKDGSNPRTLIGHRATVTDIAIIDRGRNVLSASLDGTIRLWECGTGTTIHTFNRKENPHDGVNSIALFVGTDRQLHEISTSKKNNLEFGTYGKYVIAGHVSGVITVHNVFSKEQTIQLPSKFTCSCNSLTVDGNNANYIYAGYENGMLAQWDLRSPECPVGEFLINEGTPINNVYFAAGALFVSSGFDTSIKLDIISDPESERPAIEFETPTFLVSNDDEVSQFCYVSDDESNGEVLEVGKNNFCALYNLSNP

binding result [1]: binds
B1: Rpt6-C (P318-N393) (domain or fragment, S. cerevisiae, UniProt Q01939 318-393, looked up)
chain: PPSVAARAEILRIHSRKMNLTRGINLRKVAEKMNGCSGADVKGVCTEAGMYALRERRIHVTQEDFELAVGKVMNKN

Kd [2]: 0.25 nM
stoichiometry N [2]: 1
B2: S. cerevisiae Rpt6 C-terminal domain (Rpt6-C), P318-K405 (domain or fragment, UniProt Q01939 318-405, looked up)
chain: PPSVAARAEILRIHSRKMNLTRGINLRKVAEKMNGCSGADVKGVCTEAGMYALRERRIHVTQEDFELAVGKVMNKNQETAISVAKLFK

Kd [3]: 0.01 nM
B3: Rpt6-C G^360,387A (domain or fragment, S. cerevisiae, UniProt Q01939 318-405, looked up)
chain: B2 chain with G43A, G70A
